In this data set the test system is MS2 coat protein. Kind of data set: apparent KD of MS2 coat protein; designed switch direction (-1 OFF switch, 1 ON switch): -1; higher = weaker reporter binding. The method in brief: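 Transcription of designed RNA switches on Illumina chips was done by stalled E. coli RNA polymerase. SNAP-549-labelled MS2 coat protein was then titrated in doubling steps from 0.7 or 1.5 nM to 3 µM, with steps of 0.8–1.5 h at the lowest and 10–20 min at the highest concentration. The per-design median over clusters of curve-fitted normalised fluorescence is reported as apparent KD.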

The mark [1] stands for this setting: Eterna round: R95, input ligand: FMN 200 uM.
Setting [2] is: Eterna round: R95, input ligand: microRNA oligo, concentration not stated.
Where [3] appears, read: Eterna round: R95, input ligand: none.
The mark [4] stands for this setting: input ligand: microRNA oligo, concentration not stated.

The results in this text go back to the supplement of paper PMC9170038.

In the case of “AGAAGUAGUAACCGAUCCUACAUGAGGAUCACCCAUGUAGCGAGACGUGCACGCGAAGCUCGUCAGACUACCAGAUG [salish99_TOv1_r3_025] (puzzle: Sensor v3, turn-off variant 1)”, the “apparent KD of MS2 coat protein” value under setting [1] was 138 nM, the “apparent KD of MS2 coat protein” value under setting [2] stood at 139 nM and the “apparent KD of MS2 coat protein” value under setting [3] came to 159 nM.

For the sequence “AUAUUACGAGGAUAUCGUUUUUUUCACAUGAGGAUCACCCAUGUUAUCCAUGUUUCGUUUCGAGAAGGCGUAAGUU [JR_E5_Sub070] (puzzle: Exclusion 5)”, the “apparent KD of MS2 coat protein” value under setting [2] worked out at 46.9 nM.

Turning to “UGUACGAUGCGUGCUGACAUGCGUCGUGCAGCAGGUGGAACAUGAGGAUCACCCAUGUCCUCAUUUGCUCGUCUUAU [Mat - Sensor v3 - Turn-off var 2 - D21] (puzzle: Sensor v3, turn-off variant 2)”, the “apparent KD of MS2 coat protein” value by setting is: under setting [1], 35.2 nM; under setting [2], 155 nM; under setting [3], 34.6 nM.

Take “GAAUUAAUUAAUUAAUAAUACAUGAGGAUCACCCAUGUAGAUCCUACAUACAAGCUAAGUAGCUCGUCUUAUAAUUA [Stov1/2-A2] (Eterna round: R97, puzzle: Sensor, turn-off variant 1)”: the “apparent KD of MS2 coat protein” value (input ligand: FMN 200 uM) came to 313 nM and the “apparent KD of MS2 coat protein” value (input ligand: none) is 261 nM.

“CAGUACUGAGGAUAUACAUGAGGAUCACCCAUGUGUGAGAUACUAGUGAGGUCGAUUAGUAGAAGGCAGUACUG [Mat X3R4 m25] (Eterna round: R97, puzzle: Exclusion 3)”: the “apparent KD of MS2 coat protein” value is 957 nM (input ligand: FMN 200 uM) and 26.3 nM (input ligand: none).

Turning to “AAAAAGGCAGGAUAUACAUGAGGAUCACCCAUGUGAAAAAACAAAAAAAAAAAAAAAGGUAGAAGGGCCGAAAA [Science Triplets #3] (puzzle: Exclusion 3)”, the “apparent KD of MS2 coat protein” value under setting [1] was 22.1 nM, the “apparent KD of MS2 coat protein” value under setting [2] came to 29 nM and the “apparent KD of MS2 coat protein” value under setting [3] came to 27.6 nM.

Regarding “UUUUUAUUUUUUUAUUUUGACAUGAGGAUCACCCAUGUAACGAGCAGAUCUUCAUGCAAGCUUUUUGCUCGUCUUAU [Sensor v3 - Turn-off variant 1 - 41] (puzzle: Sensor v3, turn-off variant 1)”, the “apparent KD of MS2 coat protein” value reads like this: under setting [1], 69.1 nM; under setting [2], 15.5 nM; under setting [3], 95.6 nM.

As for “GCUAAACAUGUAGGAUAUGCGUGGCGAAGCUAUGCAGAAGGACAUGAGGAUCACCCAUGUUUUAGCGUCUGCGUACAGAUGCGU [JL ENG1 1.43] (Eterna round: R96, puzzle: Exclusion NG 1)”, the “apparent KD of MS2 coat protein” value by setting is: (input ligand: FMN 200 uM) 318 nM; under setting [4], 28 nM; (input ligand: none) 31.6 nM.

On to “GCUCCUCCUGUUAGGAUAUGCUUCGGGCUUCCGCAGCAGAAGGAACAUGAGGAUCACCCAUGUCAAAUAAAAUC [Brourd's mod of Ex.4 - Mod Inxebexe (Scored 85 R3.2)] (Eterna round: R97, puzzle: Brourd's mod of Exclusion 4)”, for which the “apparent KD of MS2 coat protein” value reads like this: (input ligand: FMN 200 uM) 223 nM; (input ligand: none) 76.2 nM.

“UAGAUGGGAGGAUAUACGUAGAUGCGGAUUCGUGUGGUGCUACAUGAGGAUCACCCAUGUAGAAGGCCCGUCUU [JL-ex2-2.25 Mayanne mod] (puzzle: Exclusion 2)”: the “apparent KD of MS2 coat protein” value under setting [2] is 15.6 nM.

As to “AGGCAAUCAGGAUAUACAUGAGGAUCACCCAUGUGUACAAAGCACAUCCGAUCUAGAUGUAGAAGGGAUAUGCA [Usmabesobi] (puzzle: Exclusion 3)”, the “apparent KD of MS2 coat protein” value under setting [2] was found to be 18 nM.

Take “CAUAGUUGCUCAGGAUAUCAUACAUGAGGAUCACCCAUGUAAUAAAUGAGAAUUUCGAAUGUAAAUGAGAAGGGAGAAAUCUAC [Ostracism 60 - Jieux - Exclusion NG 2] (Eterna round: R96, puzzle: Exclusion NG 2)”: the “apparent KD of MS2 coat protein” value turned out to be 22.5 nM (input ligand: FMN 200 uM), 11.6 nM under setting [4] and 14.4 nM (input ligand: none).

As for “AAGAACUAAGGAUAUACAUGAGGAUCACCCAUGUCUUUUACAUGUUACUGGCCCGCAUGUAGAAGGUAGAAAAG [Tianrasoed] (Eterna round: R96, puzzle: Exclusion 3)”, the “apparent KD of MS2 coat protein” value worked out at 182 nM (input ligand: FMN 200 uM), 74.4 nM under setting [4] and 85 nM (input ligand: none).

Consider “ACAUGAGGGAAGGGAGGAGGGACAUGAGGAUCACCCAUGUCUCAGGAUAUAGAAGAAGAAAGAAACUAGAAGGGAGAGGAGGGU [Kawasakiqro] (Eterna round: R96, puzzle: Exclusion NG 3)”, for which the “apparent KD of MS2 coat protein” value by setting is: (input ligand: FMN 200 uM) 29.7 nM; under setting [4], 16.6 nM; (input ligand: none) 25 nM.

With “GCGAAAGCAACAAGUGAAAACAUGAGGAUCACCCAUGUCCUCAUUUGCUCGUCUUAUAAGCUAUGCGAAAGCAUAGC [Sensor 3, v1 - 10] (puzzle: Sensor v3, turn-off variant 1)”, the “apparent KD of MS2 coat protein” value runs as follows: under setting [1], 52.4 nM; under setting [2], 511 nM; under setting [3], 74.4 nM.

As for “UGAGUGCUGCGAGGAUAUACAUGAGGAUCACCCAUGUGGAUGUCUGAGGCUUUGCCUCAGACGAUGUAGAAGGCGCAGUACUCU [JL ENG2 1.20] (Eterna round: R96, puzzle: Exclusion NG 2)”, the “apparent KD of MS2 coat protein” value reads like this: (input ligand: FMN 200 uM) 100 nM; under setting [4], 15.2 nM; (input ligand: none) 22.1 nM.

Turning to “GCGCACCUACCAAAAGGUAGGUCAACAUGAGGAUCACCCAUGUAGGAUAUCGAUUGCUUUGCAGUCGAGAAGGAUAUGAUGCGC [JL ENG3 3.80 Mod 12] (Eterna round: R96, puzzle: Exclusion NG 3)”, the “apparent KD of MS2 coat protein” value (input ligand: FMN 200 uM) amounted to 27.2 nM, the “apparent KD of MS2 coat protein” value under setting [4] worked out at 16.6 nM and the “apparent KD of MS2 coat protein” value (input ligand: none) stood at 24 nM.

As to “CCAUCACAUGAGGAUCACCCAUGUCAGGAUAUCUCAGUGCAUCCACACGGACGCAUCAAGAGAAGGGACAAAAC [Vinxlusion 4 - Jieux - Exclusion 1] (Eterna round: R97, puzzle: Exclusion 1)”, the “apparent KD of MS2 coat protein” value runs as follows: (input ligand: FMN 200 uM) 35.9 nM; (input ligand: none) 34.8 nM.

In the case of “AUCCGUUCUUAGGAUAUUUGAUAAGUCAUGUACGAAGAAGGAAGAACAUGAGGAUCACCCAUGUGGGACUUCGG [Eternabot (L2) Solution 12] (Eterna round: R97, puzzle: Exclusion 6)”, the “apparent KD of MS2 coat protein” value was found to be 29 nM (input ligand: FMN 200 uM) and 25.9 nM (input ligand: none).

As to “GAUACACAUGAGGAUCACCCAUGUUAGGAUAUUAGCGGGAAAGCUGUCAGACAGUCGAUGAGAAGGAACAGGAG [Excls1-VIII] (puzzle: Exclusion 1)”, the “apparent KD of MS2 coat protein” value under setting [2] is 29.3 nM.

With “GAAAACUCAGGAUAUGCGUGAGAAAACUUGAGGAUCACCCAAGUGUGGUCCCGAUCUAAAGCAGAAGGGAGCAAAA [Lebidiraus] (Eterna round: R97, puzzle: Exclusion 5)”, the “apparent KD of MS2 coat protein” value is, setting by setting: (input ligand: FMN 200 uM) 1770 nM; (input ligand: none) 353 nM.

As to “GAUUAUGCGAGCUUUAGGGACAUGAGGAUCACCCAUGUUCGUCUUAUUAGUCUAGGUACACUAACAUACCUAAAUCU [JMF 18] (puzzle: Sensor v3, turn-off variant 1)”, the “apparent KD of MS2 coat protein” value runs as follows: under setting [1], 21.3 nM; under setting [2], 38.8 nM; under setting [3], 21.9 nM.

“CACCUGAAUACAGGAUAUCUUACAUGAGGAUCACCCAUGUAAUAAAUGAGAAUUUCGAAUGUAAUAGAGAAGGGUAGAUAAGGC [Ostracism 87 - Jieux - Exclusion NG 2] (Eterna round: R96, puzzle: Exclusion NG 2)”: the “apparent KD of MS2 coat protein” value (input ligand: FMN 200 uM) came to 39.2 nM, the “apparent KD of MS2 coat protein” value under setting [4] came to 26.5 nM and the “apparent KD of MS2 coat protein” value (input ligand: none) was determined as 33.1 nM.

“CAUUAGCGAGGAUAUACAUGAGGAUCACCCAUGUGAUCCUAAGGCUGAUGAAGCCUAUGUAGAAGGCGCAAAUU [jl-ex3.4.54 ViennaUCT mod] (Eterna round: R97, puzzle: Exclusion 3)”: the “apparent KD of MS2 coat protein” value (input ligand: FMN 200 uM) is 107 nM and the “apparent KD of MS2 coat protein” value (input ligand: none) was 42.2 nM.

Regarding “ACUUGUUGUCCUUGAUAUUACAUGAGGAUCACCCAUGUUAUUGUGAUUAUGAUGUGUAAGUUUGUUGCUCGUUUUAU [JR_STOV1_Sub066] (Eterna round: R97, puzzle: Sensor, turn-off variant 1)”, the “apparent KD of MS2 coat protein” value is 84.7 nM (input ligand: FMN 200 uM) and 84 nM (input ligand: none).

With “GUAGGGUCAGGAUAUACGGGCGGAGGGAUGUAUUGUAGUUGGUAGAAGGGACAUGAGGAUCACCCAUGUAAGAA [JR_Exclu4_Sub055] (puzzle: Exclusion 4)”, the “apparent KD of MS2 coat protein” value under setting [2] is 25.3 nM.

Turning to “ACUGGUGCAGGAUAUGCAAUCGUGCUUCGGCACGUAAGGUCACAUGAGGAUCACCCAUGUAGAAGGGCACCAGU [E2/4-D1] (Eterna round: R97, puzzle: Exclusion 2)”, the “apparent KD of MS2 coat protein” value runs as follows: (input ligand: FMN 200 uM) 33.2 nM; (input ligand: none) 12.6 nM.

For “CGCACACAUGAGGAUCACCCAUGUGAGGAUAUCAUGCUUCGUAGUAAACUACGAAGUGUGAGAAGGCACAUGUU [Omei Ex1 D9] (Eterna round: R97, puzzle: Exclusion 1)”, the “apparent KD of MS2 coat protein” value by setting is: (input ligand: FMN 200 uM) 144 nM; (input ligand: none) 55 nM.

Take “UUUAAUUUUUUUUUUUUACAAGCUUUUUGCUCGUCUUAUACAUGAGGAUCACCCAUGUAGAUGGGAAAUGAAUUAUC [JMF 98] (puzzle: Sensor v3, turn-off variant 2)”: the “apparent KD of MS2 coat protein” value stood at 26.1 nM under setting [1], 144 nM under setting [2] and 22.7 nM under setting [3].

Consider “AAGAAGAUAGGAUAUACGAGGAGAGAAGAGAAGAAAGGAGGACAUGAGGAUCACCCAUGUAGAAGGAUCAGGAA [JR_Exclu2_Sub061] (puzzle: Exclusion 2)”, for which the “apparent KD of MS2 coat protein” value turned out to be 50.2 nM under setting [1], 41 nM under setting [2] and 40.5 nM under setting [3].
